# Experimental data reported in patent publication US20240076371A1, “COMPOSITIONS AND METHODS FOR TREATING OSTEOARTHRITIS, RHEUMATOID ARTHRITIS, AND JOINT AND TENDON DISORDERS” (BOARD OF REGENTS, THE UNIVERSITY OF TEXAS SYSTEM, priority 2021, published 2024).
# B1: M1 antibody: antibody with variable heavy chain SEQ ID NO: 58 and variable light chain SEQ ID NO: 60; inhibits or blocks opening of Cx43 hemichannel (antibody, V domains shown)
# VH: EVQLQQPGAELVKPGASVKLSCKASGYTFTSYYMYWVKQRPGQGLEWIGGINPSNGGTNFNEKFKNKATLTVDKSSSTAYMQLSSLTSEDSAVYYCTREGNPYYTMNYWGQGTSVTVSS
# VL: DIVMTQSPSSLSVSAGEKVTMSCKSSQSLLNSGNQKTYLAWYQQKPGQPPKLLIYGASTRESGVPDRFTGSGSGTDFTLTISSVQAEDLAVYYCQNDHSYPFTFGSGTKLEIK
# Experiments:
# [1] = test system: post-traumatic OA model (DMM) in male C57BL/6 mice; assay: DMM OA model: immunohistochemistry of Col X and MMP13 in articular cartilage; type: in vivo, mouse
# Method: Destabilization of the medial meniscus (DMM) surgery was performed on the right knee joint of mice (Glasson S S, et al. Osteoarthritis and cartilage. 2007; 15(9):1061-9). Briefly, a 3 mm longitudinal incision over the distal patella to proximal tibial plateau was made. The joint capsule immediately medial to the patellar tendon was incised with a #15 blade and the joint capsule opened with micro-iris scissors. Blunt dissection of the fat pad over the intercondylar area was then performed to expose the intercondylar region, providing visualization of the meniscotibial ligament of the medial meniscus. Mild hemorrhage from the fat pad upon blunt dissection was controlled by pressure from absorption spears. Sectioning of medial meniscotibial ligament with micro-surgical knife, with the blade directed proximo-laterally, gave destabilization of the medial meniscus (DMM). Sham surgery was performed with the ligament visualized but not transected. Immunohistochemistry. The ABC (avidin-biotin-peroxidase complex) Immunostaining Assay Kit (Vector Laboratories, PK-6101) was used. Briefly, bone tissue sections were antigen unmasked using sodium citrate buffer (pH 6.0) at 65° C. for 2 h for MMP13 staining and trypsin digestion buffer (pH 7.8) at 37° C. for 30 min for collagen X staining. Bone tissue sections were then treated with goat normal serum for 20 min at room temperature to block nonspecific background staining. Tissue sections were stained with anti-MMP13 polyclonal antibody (1:200 dilution, Abcam, ab39012), or labeled with anti-collagen X monoclonal antibody (1:100 dilution, Thermo Fisher, 14-9771-82) at 4° C. overnight. Then, the sections were incubated for 30 min with biotin-labeled secondary antibody and VECTASTAIN ABC Reagent for 30 min Samples were washed in PBS buffer and developed in DAB (SK4100) chromogen solution (Vector Laboratories, Burlingame, CA, USA). Tissues were then counterstained with VECTOR Hematoxylin (H-3401) for 5 min at room temperature. Slides were then dehydrated, cleared, and mounted. Sections were photographed using the Keyence microscope (BZ-X710, Keyence, Osaka, Japan). The percentage of MMP13 or Col X-positive chondrocytes were quantified using NIH Image J software.
# [2] = test system: post-traumatic OA model (DMM) in male C57BL/6 mice; assay: DMM OA model: Von Frey filament test (paw withdrawal threshold); type: in vivo, mouse
# Method: Destabilization of the medial meniscus (DMM) surgery was performed on the right knee joint of mice (Glasson S S, et al. Osteoarthritis and cartilage. 2007; 15(9):1061-9). Briefly, a 3 mm longitudinal incision over the distal patella to proximal tibial plateau was made. The joint capsule immediately medial to the patellar tendon was incised with a #15 blade and the joint capsule opened with micro-iris scissors. Blunt dissection of the fat pad over the intercondylar area was then performed to expose the intercondylar region, providing visualization of the meniscotibial ligament of the medial meniscus. Mild hemorrhage from the fat pad upon blunt dissection was controlled by pressure from absorption spears. Sectioning of medial meniscotibial ligament with micro-surgical knife, with the blade directed proximo-laterally, gave destabilization of the medial meniscus (DMM). Sham surgery was performed with the ligament visualized but not transected.
# Animal behavioral tests. The paw withdraw threshold was measured using von Frey filaments 0.007 to 2. Mice were placed in acrylic chambers (5.5×10 cm) suspended above a wire mesh grid and allowed to acclimatize to the testing apparatus for 30 minutes prior to experiments. When the mouse was not moving the von Frey filaments were pressed against the plantar surface of the paw until the filament buckled and held for a maximum of 3 seconds. A positive response was noted if the paw was sharply withdrawn on application of the filament. Flinching immediately upon removal of the filament was also considered a positive response (Chaplan S R, et al. Journal of neuroscience methods. 1994; 53(1):55-63; and Bonin R P, et al. Molecular pain. 2014; 10:26). Testing began with filament number 0.4 and progressed according to an up-down method.
# Cx43 hemichannel = molecular target: T1, Cx43 hemichannel (Mus musculus, UniProt P23242); assay: In vivo Evans Blue dye uptake assay in synovium after DMM; settings: 25 mg/kg at 30 mins after DMM surgery, Evans Blue 200 mg/kg at two weeks after the treatment; DMM increased opening by 2 folds
# T1 construct: from tissue; host or cells: synovium of male C57BL/6 mice after DMM surgery (in vivo)
# Method: In vivo dye uptake assay. Evans Blue dye (Mw: 900 Da) (200 mg/kg) and FITC-dextran (Mw: 10,000 Da) (200 mg/kg) were co-injected […] post-antibody treatment via the tail vein. One-hour post administration of the dye, mice were anesthetized, and cardiac perfusion was performed with cold PBS and 4% paraformaldehyde. Both hindlimbs were isolated and prepared for frozen sections. Sections were stained with DAPI and photographed using the Keyence microscope (BZ-X710, Keyence, Osaka, Japan). The intensity of dye uptake was quantified by NIH Image J software.
# To determine the Cx43 hemichannel activity in vivo, Evans Blue dye uptake assay was performed. Mice were treated with saline or Cx43 antibody (M1 antibody) (25 mg/kg) at 30 mins after DMM surgery. Tail vein injection of Evans Blue dye (200 mg/kg) was performed at two weeks after the treatment, and Evans Blue dye uptake intensity was quantified in synovium region. […] Frozen sections prepared from saline-treated mice were immuno-labeled with the M1 antibody, further validated the role of the M1 antibody in blocking the osteoarthritis induced hemichannel opening in synoviocytes that express Cx43 (FIG. 11C).
# T1 sequence (P23242 whole entry): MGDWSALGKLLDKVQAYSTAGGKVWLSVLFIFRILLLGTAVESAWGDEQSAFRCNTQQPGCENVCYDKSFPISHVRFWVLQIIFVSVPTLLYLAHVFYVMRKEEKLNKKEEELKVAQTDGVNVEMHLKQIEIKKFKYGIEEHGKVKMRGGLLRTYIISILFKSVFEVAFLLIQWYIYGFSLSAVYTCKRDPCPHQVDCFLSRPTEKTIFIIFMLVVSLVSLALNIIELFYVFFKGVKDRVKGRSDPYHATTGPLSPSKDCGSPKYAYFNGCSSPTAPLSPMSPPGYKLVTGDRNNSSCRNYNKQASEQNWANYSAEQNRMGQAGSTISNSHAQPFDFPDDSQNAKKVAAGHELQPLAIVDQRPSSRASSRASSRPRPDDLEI
molecule,measurement,setting,value
B1,distribution of MMP13-positive chondrocytes in articular cartilage zones,"[1]; DMM mice, eight weeks, saline: three zones",localized mainly in the middle and deep zones
same,percentage of Col X positive cells,"[1]; articular cartilage, eight weeks following DMM, i.p. twice, vehicle-treated 52%",38%
same,percentage of MMP-13-positive cells in the articular cartilage,"[1]; eight weeks after DMM, i.p. twice, saline-treated 36%",27%
same,"MMP13 score, ratio of integrated optical density (IOD) to articular cartilage area","[1]; single i.p. injection at 30 minutes post-surgery, eight weeks after DMM, saline 0.17±0.016",0.10±0.009
same,response threshold to mechanical stimuli (von Frey),"[2]; 4 weeks after DMM, vs saline",slight trend of increased response threshold
same,paw withdrawal threshold relative to saline treated DMM mice,"[2]; 8 weeks after DMM, i.p. twice",121.4%
same,"paw withdraw threshold in sham mice, saline vs antibody",[2]; sham mice at 8 weeks,No difference
same,paw withdraw threshold to mechanical stimuli (von Frey),"[2]; single i.p. injection, eight weeks after DMM, vs saline",slight trend of increased paw withdraw threshold
same,DMM-increased hemichannel opening (Evans Blue dye uptake intensity in synovium region),Cx43 hemichannel,blocked
